Measurements published in US20250257130A1 (NONA BIOSCIENCES SUZHOU, published 2025).

Columns and labels:
[1] = molecular target: T1, human ROR1 on cells (HEK293T-hROR1, PANC-1, A549) (human, UniProt Q01973 30-937); assay: flow cytometry, PANC-1 cells
T1 construct: whole, on cells; one molecule for the three cell lines; also called huROR1; cell surface ROR1
Protocol: (§1) In brief, anti-ROR1 antibodies were serially diluted in staining buffer (PBS containing 2% FBS). Antibody solution was incubated with 1×10⁵ cells at 4° C. for 1 hour. […] After 1-hour incubation at 4° C., cells were washed twice with staining buffer and subjected to flow cytometry. PR000374 (Bench marker 1) and non-relevant IgG isotype control (Crownbio) were used as positive and negative controls, respectively.
Binding activity of the variants to PANC-1 cells were tested using the same method described in example 5.1. The results were shown in FIGS. 7-8 and Table 11 and Table 12.

[2] = molecular target: T1, human ROR1 on cells (HEK293T-hROR1, …); assay: flow cytometry on PANC-1 cells, MFI (Median-APC) [top panel]
[3] = molecular target: T1, human ROR1 on cells (HEK293T-hROR1, …); assay: flow cytometry on PANC-1 cells, MFI (Median-APC) [middle panel, letter not given]
[4] = molecular target: T1, human ROR1 on cells (HEK293T-hROR1, …); assay: flow cytometry on PANC-1 cells, MFI (Median-APC) [bottom panel, letter not given]
[5] = molecular target: T1, human ROR1 on cells (HEK293T-hROR1, …); assay: flow cytometry, A549 cells
Protocol: as §1

[6] = molecular target: T1, human ROR1 on cells (HEK293T-hROR1, …); assay: flow cytometry, PANC-1 cells; remark: listed apart in the source
Protocol: as §1

[7] = molecular target: T1, human ROR1 on cells (HEK293T-hROR1, …); assay: flow cytometry, HEK293T-hROR1 cells
Protocol: as §1

[8] = molecular target: T2, Human ROR1-ECD-his (Acro Biosystems RO1-H522y) (human, UniProt Q01973 30-406); assay: BLI, ROR1-His on HIS1K sensor, antibody in solution
T2 construct: extracellular domain; bought protein; also called hROR1-ECD-his; hu-ROR1-ECD-his
T2 sequence (Q01973 30-406): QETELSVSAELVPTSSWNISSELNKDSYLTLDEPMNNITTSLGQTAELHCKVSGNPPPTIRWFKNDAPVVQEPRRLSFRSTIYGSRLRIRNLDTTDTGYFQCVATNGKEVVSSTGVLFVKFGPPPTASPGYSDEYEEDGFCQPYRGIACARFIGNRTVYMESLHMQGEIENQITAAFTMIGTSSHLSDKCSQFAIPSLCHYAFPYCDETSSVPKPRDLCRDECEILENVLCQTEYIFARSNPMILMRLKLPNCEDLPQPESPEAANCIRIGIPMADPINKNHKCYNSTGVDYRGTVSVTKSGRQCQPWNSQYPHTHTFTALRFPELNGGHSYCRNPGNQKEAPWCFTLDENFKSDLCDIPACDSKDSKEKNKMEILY
Protocol: In the example, binding kinetics of anti-ROR1 antibodies to soluble ROR1 protein were analyzed by using Bio-Layer Interferometry (BLI) analysis on Fortebio Octet Red384 instrument (Fortebio).
In BLI analysis, recombinant anti-ROR1 antibodies was serially diluted with 10× kinetics buffer (Fortebio). Human ROR1-His proteins were diluted to 20 nM. Then the diluted antibodies, ROR1 proteins and regeneration buffer (10 mM glycine HCl pH 1.5) were added to 96-well plates (Greiner). Rate constants for association and dissociation were measured using HIS1K sensor (Fortebio). The sensor surface was regenerated after each binding experiment with regeneration buffer. The traces were processed using Octet Data Analysis Software (version 11.0, Pall ForteBio, CA, USA).

[9] = molecular target: T3, cynomolgus ROR1 on CHO-K1-cynoROR1 cells (cynomolgus monkey, UniProt A0A2K5WTX7 30-937); assay: flow cytometry, CHO-K1-cynoROR1 cells
T3 construct: whole, on cells
Protocol: as §1

[10] = molecular target: T4, hu-ROR2-ECD-his (Acrobiosystems RO2-H52E5) (human, UniProt Q01974 34-403); assay: ELISA, plate coated with hu-ROR2-his at 1 µg/mL
T4 construct: extracellular domain; bought protein; also called Human ROR2 his-tagged protein; Human ROR2, His Tag
T4 sequence (Q01974 34-403): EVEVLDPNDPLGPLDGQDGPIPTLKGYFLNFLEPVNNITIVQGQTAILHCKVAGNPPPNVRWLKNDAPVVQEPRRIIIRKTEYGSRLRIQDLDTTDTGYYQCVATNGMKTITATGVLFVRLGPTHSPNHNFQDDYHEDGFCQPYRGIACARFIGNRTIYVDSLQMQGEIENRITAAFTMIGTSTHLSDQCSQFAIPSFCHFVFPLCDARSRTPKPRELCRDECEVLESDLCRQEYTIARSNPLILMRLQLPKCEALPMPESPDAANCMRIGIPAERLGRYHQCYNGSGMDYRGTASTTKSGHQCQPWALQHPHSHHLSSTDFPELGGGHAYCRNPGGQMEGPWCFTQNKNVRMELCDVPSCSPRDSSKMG
Protocol: 1 μg/mL hu-ROR2-ECD-his (Acrobiocystems, RO2-H52E5) was added to the 96-well plate, 100 μL each well, incubated at 4° C. overnight, washing the plates with 1×PBST 3 times, 300 ul/well, blocking the plates with 2% BSA in 1×PBST, 200 ul/well at 37° C. for 1 hour, anti-ROR1 antibodies were serially diluted in staining buffer (PBS containing 2% BSA). Antibody solution was added to the plate and incubates at 37° C. for 1 hour, washing the plates with 1×PBST 3 times, 300 ul/well, adding secondary antibody 100 ul/well and incubate at 37° C. for 1 hour, washing the plates with 1×PBST 3 times, 300 ul/well and then add 100 ul/well TMB for about 5 min, stop the reaction by adding 100 ul/well 2M H₂SO₄, read the plates with Molecular device spectra max plus384 at 450 nm and 570 nm.

[11] = molecular target: T1, human ROR1 on cells (HEK293T-hROR1, …); assay: flow cytometry on HEK293T-hROR1 cells, MFI (Mean)
Protocol: Binding of recombinant anti-ROR1 antibodies to human or cynomolgus ROR1-overexpressing cells was tested by flow cytometry. In this example, ROR1-expressing cell lines are HEK293T cell lines that had been transfected to express human ROR1 on the surface (HEK293T-hu ROR1, KYINNO BIOTECHNOLOGY CO., LTD, Catalog #KC-1018), CHO-K1 cell lines that had been transfected to express cynomolgus ROR1 (CHOK1-cyno ROR1), PANC-1 (ATCC, catalog: CRL-1469) or A549 cell lines (Shanghai Institute of Biochemistry and Cell Biology, Chinese Academy of Sciences).
as §1

[12] = molecular target: T2, Human ROR1-ECD-his (Acro Biosystems …); assay: ELISA, coated hu-ROR1-ECD-his
Protocol: (§2) Binding of recombinant anti-ROR1 antibodies to hu-ROR1-ECD-his was tested by ELISA. In brief, 1 μg/mL hu-ROR1-ECD-his was added to the 96-well plate, 100 μL each well, incubated at 4° C. overnight, washing the plates with 1×PBST 3 times, 300 ul/well, blocking the plates with 2% BSA in 1×PBST, 200 ul/well at 37° C. for 1 hour, anti-ROR1 antibodies were serially diluted in staining buffer (PBS containing 2% BSA). Antibody solution was added to the plate and incubates at 37° C. for 1 hour, washing the plates with 1×PBST 3 times, 300 ul/well, adding secondary antibody 100 ul/well and incubate at 37° C. for 1 hour, washing the plates with 1×PBST 3 times, 300 ul/well and then add 100 ul/well TMB for about 5 min, stop the reaction by adding 100 ul/well 2M H₂SO₄, read the plates with Molecular device spectra max plus384 at 450 nm and 570 nm.

[13] = molecular target: T2, Human ROR1-ECD-his (Acro Biosystems …); assay: ELISA, plate coated with hu-ROR1-his at 1 µg/mL
Protocol: as §2

T1 sequence (Q01973 30-937): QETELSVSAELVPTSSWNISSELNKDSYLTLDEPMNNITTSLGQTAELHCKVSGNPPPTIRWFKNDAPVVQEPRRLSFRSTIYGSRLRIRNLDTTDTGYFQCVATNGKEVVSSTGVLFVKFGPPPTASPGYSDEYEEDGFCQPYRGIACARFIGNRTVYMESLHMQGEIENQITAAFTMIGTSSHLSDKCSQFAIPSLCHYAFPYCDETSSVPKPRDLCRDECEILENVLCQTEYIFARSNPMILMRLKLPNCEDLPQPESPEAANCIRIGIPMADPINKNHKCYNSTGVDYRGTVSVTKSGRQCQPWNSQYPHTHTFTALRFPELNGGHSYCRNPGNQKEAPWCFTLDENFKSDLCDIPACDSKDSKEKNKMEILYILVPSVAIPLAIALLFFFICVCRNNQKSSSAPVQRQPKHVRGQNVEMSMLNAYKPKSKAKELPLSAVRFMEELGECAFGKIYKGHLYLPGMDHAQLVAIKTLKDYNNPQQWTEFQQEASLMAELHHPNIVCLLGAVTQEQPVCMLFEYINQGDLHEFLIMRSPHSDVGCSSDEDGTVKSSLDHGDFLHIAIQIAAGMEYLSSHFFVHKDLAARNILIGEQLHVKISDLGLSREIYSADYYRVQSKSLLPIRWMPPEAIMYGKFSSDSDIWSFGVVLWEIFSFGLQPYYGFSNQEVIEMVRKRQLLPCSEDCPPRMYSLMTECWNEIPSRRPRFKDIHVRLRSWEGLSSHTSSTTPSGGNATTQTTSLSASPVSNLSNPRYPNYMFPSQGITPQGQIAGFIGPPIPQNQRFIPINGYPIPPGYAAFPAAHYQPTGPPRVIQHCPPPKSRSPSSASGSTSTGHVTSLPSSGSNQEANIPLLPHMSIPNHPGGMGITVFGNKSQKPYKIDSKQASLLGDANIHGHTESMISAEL

TOP [1] | EC50 (read off the curve) [2] [nM] | EC50 (read off the curve) [3] [nM] | Binder | also measured
75700 | – | – | PR007419 (antibody, V domains shown, bivalent form (HCAb) variant of PR005340, no light chain) VH: EVQLVESGGGLVKPGGSLRLSCAASGFTFSDFYMSWIRQAPGKGLEWISYINTRGSPIGYADSVKGRFTISRDNAKNSLYLQMNSLRAEDTAIYYCARDMPSSSSDWVSLQFDYWGQGTLVTVSS | EC50 (read off the curve) [4]: ~0.8 nM
79500 | – | – | PR007420 (antibody, V domains shown, bivalent form (HCAb) variant of PR005340, no light chain) VH: EVQLVESGGGLVKPGGSLRLSCAASGFTFSDFYMSWIRQAPGKGLEWISYISSSGSTRYYADSVKGRFTISRDNAKNSLYLQMNSLRAEDTAIYYCARDMPSSSSDWVSLQFDYWGQGTLVTVSS | EC50 (read off the curve) [4]: ~0.7 nM
73600 | – | – | PR007422 (antibody, V domains shown, bivalent form (HCAb) variant of PR005340, no light chain) VH: EVQLVESGGGLVKPGGSLRLSCAASGFTFSDFYMSWIRQAPGKGLEWISYIDSSGRPLAYADSVKGRFTISRDNAKNSLYLQMNSLRAEDTAIYYCARDIPSSSSDWVSLQFDYWGQGTLVTVSS | EC50 (read off the curve) [4]: ~0.6 nM
74500 | – | – | PR007423 (antibody, V domains shown, bivalent form (HCAb) variant of PR005340, no light chain) VH: EVQLVESGGGLVKPGGSLRLSCAASGFTFSDYYMSWIRQAPGKGLEWISYIDSSGRPLAYADSVKGRFTISRDNAKNSLYLQMNSLRAEDTAIYYCARDIPSSSSDWVDLQFDYWGQGTLVTVSS | EC50 (read off the curve) [4]: ~0.4 nM

Second part, the binder before the results:

Binder | TOP [1] | EC50 (read off the curve) [2] [nM] | EC50 (read off the curve) [3] [nM] | also measured
PR007411 (antibody, V domains shown, bivalent form (HCAb) variant of PR005340, no light chain) VH: EVQLVESGGGLVKPGGSLRLSCAASGFTFSDFYMSWIRQAPGKGLEWISYISSSGSTIHYADSVKGRFTISRDNAKNSLYLQMNSLRAEDTAIYYCARDMPSSSSDWVDLQFDYWGQGTLVTVSS | 81400 | ~0.7 | – | –
PR007408 (antibody, V domains shown, bivalent form (HCAb) variant of PR005340, no light chain) VH: EVQLVESGGGLVKPGGSLRLSCAASGFTFSDFYMSWIRQAPGKGLEWISYISSSGSYIHYADSVKGRFTISRDNAKNSLYLQMNSLRAEDTAIYYCARDMPSSSSDWVDLQFDYWGQGTLVTVSS | 87000 | ~0.4 | – | –
PR007409 (antibody, V domains shown, bivalent form (HCAb) variant of PR005340, no light chain) VH: EVQLVESGGGLVKPGGSLRLSCAASGFTFSDFYMSWIRQAPGKGLEWISYISSSGSWIHYADSVKGRFTISRDNAKNSLYLQMNSLRAEDTAIYYCARDIPSSSSDWVDLQFDYWGQGTLVTVSS | 87400 | ~0.8 | – | –
PR007410 (antibody, V domains shown, bivalent form (HCAb) variant of PR005340, no light chain) VH: EVQLVESGGGLVKPGGSLRLSCAASGFTFSDFYMSWIRQAPGKGLEWISYISSSGSYIHYADSVKGRFTISRDNAKNSLYLQMNSLRAEDTAIYYCARDIPSSSSDWVDLQFDYWGQGTLVTVSS | 80300 | ~0.8 | – | –
PR007412 (antibody, V domains shown, bivalent form (HCAb) variant of PR005340, no light chain) VH: EVQLVESGGGLVKPGGSLRLSCAASGFTFSDFYMSWIRQAPGKGLEWISYISSSGSWIHYADSVKGRFTISRDNAKNSLYLQMNSLRAEDTAIYYCARDMPSSSSDWVSLQFDYWGQGTLVTVSS | 77200 | ~0.5 | – | –
PR007413 (antibody, V domains shown, bivalent form (HCAb) variant of PR005340, no light chain) VH: EVQLVESGGGLVKPGGSLRLSCAASGFTFSDFYMSWIRQAPGKGLEWISYINTRGSPIGYADSVKGRFTISRDNAKNSLYLQMNSLRAEDTAIYYCARDMPSSSSDWVDLQFDYWGQGTLVTVSS | 89800 | – | ~0.6 | –
PR007414 (antibody, V domains shown, bivalent form (HCAb) variant of PR005340, no light chain) VH: EVQLVESGGGLVKPGGSLRLSCAASGFTFSDFYMSWIRQAPGKGLEWISYISSSGSTRYYADSVKGRFTISRDNAKNSLYLQMNSLRAEDTAIYYCARDMPSSSSDWVDLQFDYWGQGTLVTVSS | 88900 | – | ~0.5 | –
PR007415 (antibody, V domains shown, bivalent form (HCAb) variant of PR005340, no light chain) VH: EVQLVESGGGLVKPGGSLRLSCAASGFTFSDFYMSWIRQAPGKGLEWISYIDSSGRPLAYADSVKGRFTISRDNAKNSLYLQMNSLRAEDTAIYYCARDMPSSSSDWVDLQFDYWGQGTLVTVSS | 82800 | – | ~0.4 | –
PR007416 (antibody, V domains shown, bivalent form (HCAb) variant of PR005340, no light chain) VH: EVQLVESGGGLVKPGGSLRLSCAASGFTFSDFYMSWIRQAPGKGLEWISYINTRGSPIGYADSVKGRFTISRDNAKNSLYLQMNSLRAEDTAIYYCARDIPSSSSDWVDLQFDYWGQGTLVTVSS | 87600 | – | ~0.7 | –
PR007418 (antibody, V domains shown, bivalent form (HCAb) variant of PR005340, no light chain) VH: EVQLVESGGGLVKPGGSLRLSCAASGFTFSDFYMSWIRQAPGKGLEWISYIDSSGRPLAYADSVKGRFTISRDNAKNSLYLQMNSLRAEDTAIYYCARDIPSSSSDWVDLQFDYWGQGTLVTVSS | 81300 | – | ~0.4 | –
PR303147 (antibody, human IgG1, V domains shown, HCAb (heavy chain-only, human IgG1 Fc), no light chain) VH: EVQLVESGGGLVQPGGSLRLSCAASGFTFSNFWMYWVRQAPGKGLVWVSRINSDGSSTNYADSVKGRFTISRDNAKNTLYLQMNSLRVEDTAVYSCAREGSGWYEDFDYWGQGTLVTVSS | – | – | – | EC50 [5]: 6.46 µg/mL; MAX(MFI) [5]: 412000 MFI; EC50 [6]: 7.77 µg/mL; MAX(MFI) [6]: 291000 MFI; EC50 [7]: 0.325 µg/mL; MAX(MFI) [7]: 1.46e+07 MFI; Kd [8]: 11.2 nM; koff [8]: 0.0165 s⁻¹; kon [8]: 1.47e+06 M⁻¹ s⁻¹; EC50 [9]: 1.26 µg/mL; MAX(MFI) [9]: 3.67e+06 MFI; binding result [10]: no binding (tested: about 15 µg/ml); EC50 (read off the curve) [11]: ~0.3 µg/mL; EC50 [12]: 0.023 µg/mL; EC50 (read off the curve) [13]: ~0.02 µg/mL
